Where a chain is given by its changes, count along the chain named.

Test [1] deals with T1, monomeric human CD19 antigen Fc(kih) fusion molecule (human, UniProt P0DOX5 223-449 = IgG part).
T1 construct: also called monomeric CD19-Fc; human CD19-Fc(kih)
Nature of the test: SPR ProteOn XPR36, IgG from HEK supernatant captured via anti-human Fab, monomeric CD19-Fc analyte, 1:1 Langmuir.

The target of test [2] is T2, mouse 4-1BB on activated mouse splenocytes (mouse, UniProt P20334 24-256).
T2 construct: whole, on cells; also called murine 4-1BB
Kind of test: flow cytometry on activated mouse splenocytes, 4-1BB+ CD8+ T cells.

Test [3] deals with T3, human fibroblast activation protein (FAP) on cells (human, UniProt Q12884 1-760).
T3 construct: also called human FAP; huFAP
Nature of the test: flow cytometry on FAP+ WM-266-4 cells.

The target of test [4] is T2, mouse 4-1BB on activated mouse …. Kind of test: flow cytometry on activated mouse splenocytes, 4-1BB+ CD4+ T cells.
For test [5], the target named is T3, human fibroblast activation protein …. Nature of the test: flow cytometry on FAP+ MV-3 cells.
The next test addresses T4, cyCD19 ECD (cynomolgus).
T4 construct: extracellular domain; also called cynomolgus CD19
Kind of test: binding to CD19 ECD, assay not described.

Test [6] concerns the target T1, monomeric human CD19 antigen Fc(kih) …. Nature of the test: SPR ProteOn XPR36, Fab from bacterial supernatant captured via anti-human Fab, monomeric CD19-Fc analyte.

T2 sequence (P20334 24-256): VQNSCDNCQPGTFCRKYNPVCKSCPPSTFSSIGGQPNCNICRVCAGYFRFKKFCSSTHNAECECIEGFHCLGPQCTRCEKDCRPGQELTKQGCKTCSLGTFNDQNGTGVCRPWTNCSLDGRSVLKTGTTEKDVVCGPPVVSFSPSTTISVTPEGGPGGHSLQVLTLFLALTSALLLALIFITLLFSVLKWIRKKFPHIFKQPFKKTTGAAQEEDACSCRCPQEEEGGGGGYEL

B1: anti-CD19 clone 8B8 (parental) in P329GLALA human IgG1 format (antibody, V domains shown)
VH: EVQLQQSGPELVKPGASVKMACKASGYTFTDYIMHWVKQKTGQGLEWIGYINPYNDGSKYTEKFNGKATLTSDKSSITAYMELSSLTSEDSAVYYCARGTYYYGSALFDYWGQGTTLTVSS
VL: DAVMTQTPLSLPVSLGDQASISCRSSQSLENSNGNTYLNWYLQKPGQSPQLLIYRVSKRFSGVLDRFSGSGSGTDFTLKISRVEAEDLGVYFCLQLTHVPYTFGGGTKLEIKR
notes: also called Parental 8B8
In test [1], B1 gave a Kd of 2.36 nM, a koff of 0.000134 s⁻¹ and an on-rate (kon) of 56600 M⁻¹ s⁻¹.

B2: FAP-targeted murine 4-1BB ligand trimer-containing Fc fusion antigen binding molecule Construct M.1 (Fc fusion)
chain 1: RTEPRPALTITTSPNLGTRENNADQVTPVSHIGSPNTTQQGSPVFAKLLAKNQASLSNTTLNWHSQDGAGSSYLSQGLRYEEDKKELVVDSPGLYYVFLELKLSPTFTNTGHKVQGWVSLVLQAKPQVDDFDNLALTVELFPSSMENKLVDRSWSQLLLLKAGHRLSVGLRAYLHGAQDAYRDWELSYPNTTSFGLFLVKPDNPWEGGGGSGGGGSRTEPRPALTITTSPNLGTRENNADQVTPVSHIGSPNTTQQGSPVFAKLLAKNQASLSNTTLNWHSQDGAGSSYLSQGLRYEEDKKELVVDSPGLYYVFLELKLSPTFTNTGHKVQGWVSLVLQAKPQVDDFDNLALTVELFPSSMENKLVDRSWSQLLLLKAGHRLSVGLRAYLHGAQDAYRDWELSYPNTTSFGLFLVKPDNPWEGGGGSGGGGSRADAAPTVSIFPPSSEQLTSGGASVVCFLNNFYPKDINVKWKIDGSERQNGVLNSWTDQDSKDSTYSMSSTLTLTKDEYERHNSYTCEATHKTSTSPIVKSFNRNECVPRDCGCKPCICTVPEVSSVFIFPPKPKDVLTITLTPKVTCVVVAISKDDPEVQFSWFVDDVEVHTAQTKPREEQINSTFRSVSELPIMHQDWLNGKEFKCRVNSAAFGAPIEKTISKTKGRPKAPQVYTIPPPKEQMAKDKVSLTCMITNFFPEDITVEWQWNGQPAENYDNTQPIMDTDGSYFVYSDLNVQKSNWEAGNTFTCSVLHEGLHNHHTEKSLSHSPGK
chain 2: RTEPRPALTITTSPNLGTRENNADQVTPVSHIGSPNTTQQGSPVFAKLLAKNQASLSNTTLNWHSQDGAGSSYLSQGLRYEEDKKELVVDSPGLYYVFLELKLSPTFTNTGHKVQGWVSLVLQAKPQVDDFDNLALTVELFPSSMENKLVDRSWSQLLLLKAGHRLSVGLRAYLHGAQDAYRDWELSYPNTTSFGLFLVKPDNPWEGGGGSGGGGSAKTTPPSVYPLAPGSAAQTNSMVTLGCLVKGYFPEPVTVTWNSGSLSSGVHTFPAVLQSDLYTLSSSVTVPSSTWPSQTVTCNVAHPASSTKVDKKIVPRDC
heavy: EVQLLESGGGLVQPGGSLRLSCAASGFTFSSHAMSWVRQAPGKGLEWVSAIWASGEQYYADSVKGRFTISRDNSKNTLYLQMNSLRAEDTAVYYCAKGWLGNFDYWGQGTLVTVSSAKTTPPSVYPLAPGSAAQTNSMVTLGCLVKGYFPEPVTVTWNSGSLSSGVHTFPAVLQSDLYTLSSSVTVPSSTWPSQTVTCNVAHPASSTKVDKKIVPRDCGCKPCICTVPEVSSVFIFPPKPKDVLTITLTPKVTCVVVAISKDDPEVQFSWFVDDVEVHTAQTKPREEQINSTFRSVSELPIMHQDWLNGKEFKCRVNSAAFGAPIEKTISKTKGRPKAPQVYTIPPPKKQMAKDKVSLTCMITNFFPEDITVEWQWNGQPAENYKNTQPIMKTDGSYFVYSKLNVQKSNWEAGNTFTCSVLHEGLHNHHTEKSLSHSPGK
light: EIVLTQSPGTLSLSPGERATLSCRASQSVSRSYLAWYQQKPGQAPRLLIIGASTRATGIPDRFSGSGSGTDFTLTISRLEPEDFAVYYCQQGQVIPPTFGQGTKVEIKRADAAPTVSIFPPSSEQLTSGGASVVCFLNNFYPKDINVKWKIDGSERQNGVLNSWTDQDSKDSTYSMSSTLTLTKDEYERHNSYTCEATHKTSTSPIVKSFNRNEC
notes: murine IgG1 DD/KK, DAPG; anti-FAP 28H1
As for B2, the EC50 in test [2] turned out to be 0.87 nM; in test [3] it was 5.14 nM; in test [4], 0.52 nM; in test [5], 7.26 nM.

B3: FAP-targeted murine 4-1BB ligand trimer-containing Fc fusion antigen binding molecule Construct M.2 (Fc fusion)
chain 1: B2 chain 1 with S34C, S143C, S250C, S359C
chain 2: B2 chain 2 with S34C, S143C
heavy: B2 heavy
light: B2 light
Take B3: the half-maximal effective concentration (EC50) in test [2] was determined as 0.54 nM; in test [3], 5.63 nM; in test [4], 0.42 nM; in test [5], 6.9 nM.

B4: anti-CD19 clone 8B8-5D08 in P329GLALA human IgG1 format (antibody, V domains shown)
VH: QVQLVQSGAEVKKPGASVKVSCKASGYTFTDYIMHWVRQAPGQGLEWMGYINPYNDGSKYTEKFQGRVTMTSDTSISTAYMELSRLRSDDTAVYYCARGTYYYGSELFDYWGQGTTVTVSS
VL: DIVMTQTPLSLSVTPGQPASISCKSSQSLETSTGNTYLNWYLQKPGQSPQLLIYRVSKRFSGVPDRFSGSGSGTDFTLKISRVEAEDVGVYYCLQLTHEPYTFGQGTKLEIKR
In test [1], B4 displayed a Kd of 0.951 nM, a dissociation rate constant (koff) of 8.44e-05 s⁻¹ and a kon of 88800 M⁻¹ s⁻¹.

B5: wild-type humanized anti-human CD19 antibody (var.0) (antibody, V domains shown)
VH: B4 VH with Q65N, R67K, V68A, E106A
VL: DIVMTQTPLSLSVTPGQPASISCKSSQSLENSNGNTYLNWYLQKPGQSPQLLIYRVSKRFSGVPDRFSGSGSGTDFTLKISRVEAEDVGVYYCLQLTHVPYTFGQGTKLEIK
notes: humanized 8B8; also called variant 0; wt
For the molecule B5, in the test with cyCD19 ECD, the EC50 is 0.313 µg/mL.

B6: parental anti-CD19 clone 8B8, Fab in bacterial supernatant (Fab, V domains shown)
VH: B4 VH with E106A
VL: B5 VL with S32P
notes: conflicting; also called Parental 8B8; parental humanized clone 8B8
Regarding B6, the koff in test [6] is 0.000301 s⁻¹.

B7: anti-CD19 clone 8B8-7H07, Fab in bacterial supernatant (Fab, V domains shown)
VH: B4 VH
VL: B5 VL with N31T, N33T, L96A, V99I
For B7, in test [6], the koff was found to be 5.75e-05 s⁻¹.

B8: anti-CD19 clone 8B8-5B08 in P329GLALA human IgG1 format (antibody, V domains shown)
VH: B4 VH with S105P, E106Q
VL: B4 VL with T97D, H98S, E99Y, Y101N
In test [1], B8 gave an equilibrium dissociation constant (Kd) of 0.772 nM, a koff of 5.26e-05 s⁻¹ and an association rate constant (kon) of 68100 M⁻¹ s⁻¹.

B9: anti-CD19 clone 8B8-5A07 in P329GLALA human IgG1 format (antibody, V domains shown)
VH: B4 VH with E106A
VL: B4 VL with L96P, T97G, E99Y, Y101G
Regarding B9, in test [1], binding was put at a Kd of 0.44 nM, the koff turned out to be 3.07e-05 s⁻¹ and the on-rate constant (kon) stood at 69800 M⁻¹ s⁻¹.

B10: anti-CD19 clone 8B8-7H07 in P329GLALA human IgG1 format (antibody, V domains shown)
VH: B4 VH
VL: B4 VL with L96A, E99I
In test [1], B10 showed a Kd of 0.747 nM, an off-rate constant (koff) of 5.57e-05 s⁻¹ and an association rate constant (kon) of 74500 M⁻¹ s⁻¹.

B11: anti-CD19 clone 8B8-2B11 in P329GLALA human IgG1 format (antibody, V domains shown)
VH: B4 VH with S105P, E106Q
VL: B4 VL with N35T, T97L, H98E, E99D
B11: in test [1], the Kd was 0.495 nM, the koff amounted to 3.14e-05 s⁻¹ and the kon amounted to 63400 M⁻¹ s⁻¹.

B12: anti-CD19 clone 8B8-2B11, Fab in bacterial supernatant (Fab, V domains shown)
VH: B4 VH with S105P, E106Q
VL: B5 VL with N31T, N33T, N35T, T97L, H98E, V99D
B12: in test [6], the off-rate constant (koff) came out at 4.37e-06 s⁻¹.

B13: anti-CD19 clone 8B8-5H09, Fab in bacterial supernatant (Fab, V domains shown)
VH: B4 VH with E106A
VL: B5 VL with N31S, N33T, T97I, H98D, V99Y, Y101V
The molecule B13 yielded a koff in test [6] of 0.000258 s⁻¹.

B14: anti-CD19 clone 8B8-5D08, Fab in bacterial supernatant (Fab, V domains shown)
VH: B4 VH
VL: B5 VL with N31T, N33T, V99E
Regarding B14, in test [6], the off-rate constant (koff) is 0.000195 s⁻¹.

B15: anti-CD19 clone 8B8-2B03, Fab in bacterial supernatant (Fab, V domains shown)
VH: B4 VH with M34T, S105P, E106D
VL: B5 VL with N31T, N33T
notes: printed VL holds an X
For B15, in test [6], the koff stood at 3.24e-05 s⁻¹.

B16: anti-CD19 clone 8B8-2B03 in P329GLALA human IgG1 format (antibody, V domains shown)
VH: B4 VH with M34T, S105P, E106D
VL: B4 VL with E99V
notes: light chain holds an X
For the molecule B16, in test [1], binding was put at a Kd of 0.831 nM, the koff is 5e-05 s⁻¹ and the kon turned out to be 60200 M⁻¹ s⁻¹.

B17: anti-CD19 clone 8B8-5H09 in P329GLALA human IgG1 format (antibody, V domains shown)
VH: B4 VH with E106A
VL: B4 VL with T31S, T97I, H98D, E99Y, Y101V
Turning to B17, in test [1], the Kd was determined as 0.189 nM, the koff stood at 1.5e-05 s⁻¹ and the on-rate (kon) turned out to be 79100 M⁻¹ s⁻¹.

Values taken from patent publication US20250101135A1 (Hoffmann-La Roche, published 2025).
